Source: paper PMC4615246 (Nucleus, 2015)
Like-named read-outs stand apart in the source and are kept apart here. Blank lines part the entries; values can stand above or below the binder they belong to.

Key:
Assay in all cases: LacI/LacO array recruitment in cells
LacI-CFP-Nup58 = target: T1, LacI-CFP-Nup58 (human, UniProt Q9BVL2 1-599)
T1 sequence: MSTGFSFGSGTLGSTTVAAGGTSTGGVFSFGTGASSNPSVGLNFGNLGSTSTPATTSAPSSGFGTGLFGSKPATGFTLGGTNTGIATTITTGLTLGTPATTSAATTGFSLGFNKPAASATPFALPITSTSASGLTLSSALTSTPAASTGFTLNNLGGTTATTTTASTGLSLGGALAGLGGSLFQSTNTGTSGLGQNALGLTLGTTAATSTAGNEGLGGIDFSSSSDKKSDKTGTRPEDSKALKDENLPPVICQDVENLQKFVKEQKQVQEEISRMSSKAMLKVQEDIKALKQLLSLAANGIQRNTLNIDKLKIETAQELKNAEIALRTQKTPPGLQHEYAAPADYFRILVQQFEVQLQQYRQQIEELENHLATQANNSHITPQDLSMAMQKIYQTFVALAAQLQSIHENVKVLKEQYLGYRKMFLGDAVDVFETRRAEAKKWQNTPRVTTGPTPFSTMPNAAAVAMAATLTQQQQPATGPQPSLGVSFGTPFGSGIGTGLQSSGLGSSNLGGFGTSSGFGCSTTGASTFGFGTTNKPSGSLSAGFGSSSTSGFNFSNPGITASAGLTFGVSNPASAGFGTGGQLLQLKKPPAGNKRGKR

LacI-CFP-Nup214 = LacI-CFP-Nup214 (human, UniProt P35658 1-2090)
LacI-CFP-Nup214, sequence (P35658 whole entry): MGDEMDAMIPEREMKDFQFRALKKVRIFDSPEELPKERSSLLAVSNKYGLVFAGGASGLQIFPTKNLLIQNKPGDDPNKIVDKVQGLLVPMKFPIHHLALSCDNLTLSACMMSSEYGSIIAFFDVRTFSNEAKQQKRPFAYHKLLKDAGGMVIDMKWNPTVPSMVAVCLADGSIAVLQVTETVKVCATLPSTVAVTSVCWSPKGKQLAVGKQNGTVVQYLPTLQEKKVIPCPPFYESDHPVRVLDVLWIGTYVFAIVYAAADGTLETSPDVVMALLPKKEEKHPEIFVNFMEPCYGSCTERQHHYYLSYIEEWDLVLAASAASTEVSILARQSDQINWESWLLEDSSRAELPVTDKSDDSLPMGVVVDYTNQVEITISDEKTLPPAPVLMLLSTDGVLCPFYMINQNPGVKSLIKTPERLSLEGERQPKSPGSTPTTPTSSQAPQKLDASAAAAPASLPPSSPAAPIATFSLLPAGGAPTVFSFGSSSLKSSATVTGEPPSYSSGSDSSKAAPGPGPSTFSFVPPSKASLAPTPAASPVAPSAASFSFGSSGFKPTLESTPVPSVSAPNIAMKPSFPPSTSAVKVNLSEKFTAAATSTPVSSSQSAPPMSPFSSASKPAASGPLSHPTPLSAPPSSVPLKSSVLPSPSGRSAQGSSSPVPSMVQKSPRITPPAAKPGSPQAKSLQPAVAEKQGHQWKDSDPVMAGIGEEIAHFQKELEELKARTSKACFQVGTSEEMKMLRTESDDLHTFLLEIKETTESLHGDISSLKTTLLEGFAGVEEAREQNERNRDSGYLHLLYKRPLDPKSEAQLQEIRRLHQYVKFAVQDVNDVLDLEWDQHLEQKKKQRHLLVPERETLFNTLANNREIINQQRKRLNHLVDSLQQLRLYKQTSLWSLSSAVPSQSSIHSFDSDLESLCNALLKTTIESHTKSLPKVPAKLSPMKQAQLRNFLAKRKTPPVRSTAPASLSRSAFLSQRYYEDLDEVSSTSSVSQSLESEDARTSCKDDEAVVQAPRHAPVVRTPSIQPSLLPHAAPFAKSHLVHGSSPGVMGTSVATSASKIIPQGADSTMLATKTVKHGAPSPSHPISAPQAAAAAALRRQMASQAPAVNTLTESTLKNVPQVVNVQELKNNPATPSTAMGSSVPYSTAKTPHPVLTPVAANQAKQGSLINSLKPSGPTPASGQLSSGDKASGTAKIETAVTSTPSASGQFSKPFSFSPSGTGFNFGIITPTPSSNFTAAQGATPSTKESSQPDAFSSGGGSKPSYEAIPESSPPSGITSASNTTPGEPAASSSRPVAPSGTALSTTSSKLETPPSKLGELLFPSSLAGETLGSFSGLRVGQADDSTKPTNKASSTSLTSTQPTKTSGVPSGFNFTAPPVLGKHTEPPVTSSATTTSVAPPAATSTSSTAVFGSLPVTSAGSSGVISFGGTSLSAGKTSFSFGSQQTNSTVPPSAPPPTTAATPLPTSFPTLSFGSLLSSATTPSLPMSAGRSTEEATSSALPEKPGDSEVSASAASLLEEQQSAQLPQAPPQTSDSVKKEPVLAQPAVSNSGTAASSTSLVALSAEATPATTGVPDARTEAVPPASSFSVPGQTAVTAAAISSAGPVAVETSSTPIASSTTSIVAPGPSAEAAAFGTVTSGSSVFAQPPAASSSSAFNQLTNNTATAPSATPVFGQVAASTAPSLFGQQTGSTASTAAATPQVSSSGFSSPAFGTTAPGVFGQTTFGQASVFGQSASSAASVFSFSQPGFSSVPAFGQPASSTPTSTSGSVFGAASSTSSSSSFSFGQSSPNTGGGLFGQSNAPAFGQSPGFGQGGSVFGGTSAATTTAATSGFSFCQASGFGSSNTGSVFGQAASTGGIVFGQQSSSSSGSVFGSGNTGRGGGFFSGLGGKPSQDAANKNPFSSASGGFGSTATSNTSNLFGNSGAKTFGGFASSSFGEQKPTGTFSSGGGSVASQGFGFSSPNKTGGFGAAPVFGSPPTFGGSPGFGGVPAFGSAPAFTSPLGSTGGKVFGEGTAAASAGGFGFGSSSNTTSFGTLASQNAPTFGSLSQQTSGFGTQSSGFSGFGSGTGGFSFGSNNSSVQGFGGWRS

LacI-CFP-Nup98 = target: T2, LacI-CFP-Nup98 (human, UniProt P52948 1-880)
T2 sequence: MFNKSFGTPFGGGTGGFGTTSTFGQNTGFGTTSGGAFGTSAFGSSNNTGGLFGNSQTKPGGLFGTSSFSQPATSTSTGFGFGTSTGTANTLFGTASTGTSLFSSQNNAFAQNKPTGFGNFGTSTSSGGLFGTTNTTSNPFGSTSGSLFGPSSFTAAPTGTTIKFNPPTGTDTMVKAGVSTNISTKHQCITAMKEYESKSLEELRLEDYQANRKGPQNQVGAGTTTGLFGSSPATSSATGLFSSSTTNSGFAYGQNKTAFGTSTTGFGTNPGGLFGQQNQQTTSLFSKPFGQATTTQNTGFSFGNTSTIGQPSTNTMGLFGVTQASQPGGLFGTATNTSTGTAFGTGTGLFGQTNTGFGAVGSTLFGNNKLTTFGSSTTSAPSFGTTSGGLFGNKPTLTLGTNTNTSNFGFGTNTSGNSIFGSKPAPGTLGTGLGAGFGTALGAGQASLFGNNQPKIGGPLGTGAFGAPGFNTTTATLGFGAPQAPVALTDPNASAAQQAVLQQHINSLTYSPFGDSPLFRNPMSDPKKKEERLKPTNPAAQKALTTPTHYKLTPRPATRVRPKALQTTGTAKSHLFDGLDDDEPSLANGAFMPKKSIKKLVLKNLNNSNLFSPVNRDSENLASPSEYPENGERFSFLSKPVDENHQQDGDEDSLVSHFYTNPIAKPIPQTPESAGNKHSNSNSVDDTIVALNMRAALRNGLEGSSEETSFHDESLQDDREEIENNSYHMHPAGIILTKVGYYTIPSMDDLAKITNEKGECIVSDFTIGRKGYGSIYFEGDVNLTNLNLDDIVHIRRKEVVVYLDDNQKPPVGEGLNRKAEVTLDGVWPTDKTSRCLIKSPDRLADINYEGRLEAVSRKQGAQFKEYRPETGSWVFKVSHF

LacI-CFP-Nup53 [1] = target: T3, LacI-CFP-Nup53 (human, UniProt Q8NFH5 1-326)
T3 sequence: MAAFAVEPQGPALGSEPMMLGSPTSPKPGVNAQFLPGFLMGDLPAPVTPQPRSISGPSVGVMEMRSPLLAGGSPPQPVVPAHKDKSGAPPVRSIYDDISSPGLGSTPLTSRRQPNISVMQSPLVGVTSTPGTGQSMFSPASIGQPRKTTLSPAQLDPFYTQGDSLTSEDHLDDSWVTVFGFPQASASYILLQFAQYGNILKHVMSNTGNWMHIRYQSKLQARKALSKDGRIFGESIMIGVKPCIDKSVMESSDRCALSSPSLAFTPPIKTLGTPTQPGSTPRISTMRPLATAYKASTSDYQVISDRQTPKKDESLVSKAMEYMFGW

LacI-CFP-Nup53 [2] = target: T3, LacI-CFP-Nup53; remark: listed apart in the source

percent of transfected cells showing colocalization (LacI-CFP-Nup58): 100%
percent of transfected cells showing colocalization (LacI-CFP-Nup214): 97%
percent of transfected cells showing colocalization (LacI-CFP-Nup98): 8%
B1: Nup62 (endogenous) (natural protein)
chain: MSGFNFGGTGAPTGGFTFGTAKTATTTPATGFSFSTSGTGGFNFGAPFQPATSTPSTGLFSLATQTPATQTTGFTFGTATLASGGTGFSLGIGASKLNLSNTAATPAMANPSGFGLGSSNLTNAISSTVTSSQGTAPTGFVFGPSTTSVAPATTSGGFSFTGGSTAQPSGFNIGSAGNSAQPTAPATLPFTPATPAATTAGATQPAAPTPTATITSTGPSLFASIATAPTSSATTGLSLCTPVTTAGAPTAGTQGFSLKAPGAASGTSTTTSTAATATATTTSSSSTTGFALNLKPLAPAGIPSNTAAAVTAPPGPGAAAGAAASSAMTYAQLESLINKWSLELEDQERHFLQQATQVNAWDRTLIENGEKITSLHREVEKVKLDQKRLDQELDFILSQQKELEDLLSPLEELVKEQSGTIYLQHADEEREKTYKLAENIDAQLKRMAQDLKDIIEHLNTSGAPADTSDPLQQICKILNAHMDSLQWIDQNSALLQRKVEEVTKVCEGRRKEQERSFRITFD

percent of transfected cells showing colocalization (LacI-CFP-Nup53 [1]): 67%
percent of transfected cells showing colocalization (LacI-CFP-Nup53 [2]): 63%
B2: Nup93 (endogenous) (natural protein)
chain: MDTEGFGELLQQAEQLAAETEGISELPHVERNLQEIQQAGERLRSRTLTRTSQETADVKASVLLGSRGLDISHISQRLESLSAATTFEPLEPVKDTDIQGFLKNEKDNALLSAIEESRKRTFGMAEEYHRESMLVEWEQVKQRILHTLLASGEDALDFTQESEPSYISDVGPPGRSSLDNIEMAYARQIYIYNEKIVNGHLQPNLVDLCASVAELDDKSISDMWTMVKQMTDVLLTPATDALKNRSSVEVRMEFVRQALAYLEQSYKNYTLVTVFGNLHQAQLGGVPGTYQLVRSFLNIKLPAPLPGLQDGEVEGHPVWALIYYCMRCGDLLAASQVVNRAQHQLGEFKTWFQEYMNSKDRRLSPATENKLRLHYRRALRNNTDPYKRAVYCIIGRCDVTDNQSEVADKTEDYLWLKLNQVCFDDDGTSSPQDRLTLSQFQKQLLEDYGESHFTVNQQPFLYFQVLFLTAQFEAAVAFLFRMERLRCHAVHVALVLFELKLLLKSSGQSAQLLSHEPGDPPCLRRLNFVRLLMLYTRKFESTDPREALQYFYFLRDEKDSQGENMFLRCVSELVIESREFDMILGKLENDGSRKPGVIDKFTSDTKPIINKVASVAENKGLFEEAAKLYDLAKNADKVLELMNKLLSPVVPQISAPQSNKERLKNMALSIAERYRAQGISANKFVDSTFYLLLDLITFFDEYHSGHIDRAFDIIERLKLVPLNQESVEERVAAFRNFSDEIRHNLSEVLLATMNILFTQFKRLKGTSPSSSSRPQRVIEDRDSQLRSQARTLITFAGMIPYRTSGDTNARLVQMEVLMN
